Two substances from patent US20200238197A1 can be followed below.

The target of experiment [1] is Polyclonal human IgG Gammanorm. Nature of the experiment: Binder coupled to Praesto Pure45 agarose beads. Mass of injected polyclonal hIgG (Gammanorm) at 10% breakthrough, 6 min residence time (Example 10).
For a further experiment, the target named is human IgG1. Nature of the experiment: ELISA, IgG1 antibody coated on plate, detection with Strep-Tactin-HRP.

Regarding R PROTEIN A, in experiment [1], the dynamic binding capacity is 37.4 mg/mL.
Broadly, the Kd is the constant that tells how readily two partners part at equilibrium. The low end stands for a tighter complex, the high end for a looser complex. “Staphylococcus aureus Protein A domain B” yielded a dissociation constant Kd with human IgG1 of 3.1 nM. This lies in the single-digit nanomolar range.
